What was measured:
[1] = target: Human fibronectin purified from plasma (human); experiment: single-molecule force spectroscopy (AFM), dynamic force spectroscopy; Fn tips against immobilised bacteria, PBS, room temperature; retraction speeds 0.5, 1, 3, 5 and 10 um/s to vary the loading rate
[2] = target: Human fibronectin purified from plasma (human); experiment: single-cell force spectroscopy (AFM); single bacterium on a polydopamine colloidal probe against Fn-coated gold substrates in PBS, room temperature, applied force 250 pN, approach and retraction 1,000 nm/s, contact time 100 ms
[3] = target: Human fibronectin purified from plasma (human); experiment: single-molecule force spectroscopy (AFM); AFM tips functionalized with Fn (EDC/NHS) against bacteria immobilised on polystyrene, PBS, room temperature, applied force 250 pN, approach and retraction 1,000 nm/s, contact time 100 ms
[4] = target: SpsD_(520-846) (C domain, connecting region of SpsD) (Staphylococcus pseudintermedius ED99); experiment: SPR; Biacore X100; SpsD520-846 or SpsL538-823 covalently immobilised on CM5 chips; 2-fold dilution series of Fn in PBS with 0.005% Tween 20, 30 ul/min, 22°C; steady-state response fitted to the Langmuir equation (one-site model)
[5] = target: SpsL_(538-823) (R domain, repetitive region of SpsL) (Staphylococcus pseudintermedius ED99); experiment: as above

SpsD on the surface of S. pseudintermedius ED99 spsL mutant cells (natural protein)
bond strength at low tensile force [1]: 0.25 nN | bond strength under mechanical tension [1]: 2 nN | adhesion force (cell 1) [2]: 1440 pN | adhesion force (cell 2) [2]: 1750 pN | adhesion force (cell 3) [2]: 1540 pN | unbinding force (cell 1) [3]: 1500 pN | unbinding force (cell 2) [3]: 1700 pN | unbinding force (cell 3) [3]: 1820 pN

SpsL on the surface of S. pseudintermedius ED99 spsD mutant cells (natural protein)
adhesion force (3 cells) [2]: 168 pN | frequency of adhesive force curves [2]: 66% | adhesion force (3 cells) [3]: 158 pN

Human fibronectin purified from plasma (natural protein)
Kd [4]: 0.0012 µM | Kd [5]: 0.05 µM
